Source: patent US20230051715A1 (MABWELL THERAPEUTICS, published 2023)
Where a chain is given by its changes, count along the chain named. Numbers in names are those of the source.

T1: human C1s mutant M18 (V288T) (human, UniProt P09871 16-688)
T1 construct: The entry is the mutant itself
T1 sequence: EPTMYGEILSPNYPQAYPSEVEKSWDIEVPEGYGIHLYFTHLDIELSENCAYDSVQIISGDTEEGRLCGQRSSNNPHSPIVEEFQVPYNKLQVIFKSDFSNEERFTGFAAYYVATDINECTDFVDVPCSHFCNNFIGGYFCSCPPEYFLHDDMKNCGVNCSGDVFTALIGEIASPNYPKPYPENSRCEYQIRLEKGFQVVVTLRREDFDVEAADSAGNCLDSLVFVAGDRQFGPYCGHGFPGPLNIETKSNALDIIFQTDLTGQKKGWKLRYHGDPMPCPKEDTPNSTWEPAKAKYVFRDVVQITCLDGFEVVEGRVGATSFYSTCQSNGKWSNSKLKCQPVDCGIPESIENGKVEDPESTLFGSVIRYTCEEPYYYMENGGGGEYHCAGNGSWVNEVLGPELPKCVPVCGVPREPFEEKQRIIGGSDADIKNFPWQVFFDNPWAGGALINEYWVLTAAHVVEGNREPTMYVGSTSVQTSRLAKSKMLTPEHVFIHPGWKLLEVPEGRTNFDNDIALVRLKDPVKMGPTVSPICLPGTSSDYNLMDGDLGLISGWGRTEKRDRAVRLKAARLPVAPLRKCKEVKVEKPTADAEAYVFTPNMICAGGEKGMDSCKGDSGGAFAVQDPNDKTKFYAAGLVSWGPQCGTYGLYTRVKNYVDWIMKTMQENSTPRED

T2: human C1s mutant M13 (A292D) (human, UniProt P09871 16-688)
T2 construct: The entry is the mutant itself
T2 sequence: T1 sequence with T288V, A292D

T3: C1s in normal human serum (NHS, CompTech NHS) (human, UniProt P09871 16-688)
T3 sequence (looked up): T1 sequence with T288V

B1: Anti-C1s antibody hz2-8 (H1L2 G80A) (antibody, V domains shown)
VH: QVQLVQSGAEVKKPGASVKVSCKASGFNIKEYYMHWVRQAPEQGLEWMGWIDPENADTIYAQKFQGRVTITADTSTNTAYMELSSLRSEDTAVYYCARSRLFFAYWGQGTLVTVSS
VL: DIQMTQSPKSLSASVGDRVTITCRASQDVRTALDWYQQKPGQSPKLLIYSASYRYSGVPSRFSGSGSGTDFTLTISSLQPEDFATYYCQQQYTTPYTFGQGTKLEIKR
notes: Humanized variant with G80A in HC CDR2 (already in the entry), human IgG1 / kappa
B2: Anti-C1s antibody hz2-8 (H1L2 G80A/T82A) (antibody, V domains shown)
VH: B1 VH with T58A
VL: B1 VL
notes: Humanized variant with G80A and T82A in HC CDR2 (already in the entry), human IgG1 / kappa
B3: Anti-C1s antibody hz2-7(H1L2) (antibody, V domains shown)
VH: EVQLLESGGGLVQPGGSLRLSCAASGFTFSNYFMNWVRQAPGKGLEWVSEIRLKFTNYATHYADSVKGRFTISRDDSKSTLYLQMNSLRAEDTAVYYCTRDYGSRNGYFDYWGQGTLVTVSS
VL: DIVMTQTPLSLPVTPGEPASISCRSSKSLLHSNGNTFLYWFLQKPGQSPQLLIYRMSNLASGVPDRFSGSGSGTDFTLKISRVEAEDVGVYYCMQHLEYPYTFGGGTKLEIKR
notes: Humanized, human IgG1 / kappa; also called hz2-7(1L2)

Tests used:
[1] = molecular target: T1, human C1s mutant M18 (V288T); assay: ELISA, plate coated with human C1s mutant M18: V288T, OD450nm
Method: (§1) ELISA was carried out by first coating 96-well plates with 200 ng/well of full-length or truncated C1s proteins overnight. The next morning, plates were blocked with SuperBlock T20 blocking buffer (Thermo Scientific 37536) for 1 h with gentle shaking. Then, various concentrations of anti-C1s antibodies diluted in SuperBlock T20 blocking buffer were added to the plates and incubated for 1 h with gentle shaking. Mouse IgG (Sigma-Aldrich 15381) and human IgG1 (BioXCell BP0297) were used as negative controls. The plates were washed before incubating with HRP conjugated secondary antibodies diluted in SuperBlock T20 blocking buffer (goat anti-mouse IgG (H+L) cross-adsorbed secondary antibody HRP (Invitrogen G-21040) or goat anti-human IgG antibody, HRP conjugate (Millipore AP309P)) for 1 h with gentle shaking. At last, the plates were washed and color developed with ELISA liquid HRP substrate (Sigma-Aldrich), followed by stopping the reaction with addition of 1M H₂SO₄ in the same volume as the ELISA liquid substrate. Bound antibody was measured by absorbance at OD₄₅₀ₙₘ.
(§2) Binding of anti-C1s antibodies to mutants M1-M20 of human C1s was measured by ELISA as described in Example 4, and results are shown in FIGS. 6B-6U. All anti-C1s humanized variants including hz2-7(H1L2), hz2-8(H1L2 G80A) and hz2-8(H1L2 G80A/T82A) maintained strong binding properties to the majority (16 out of 20) of C1s mutants including M1 (FIG. 6B), M2 (FIG. 6C), M3 (FIG. 6D). M4 (FIG. 6E), M7 (FIG. 6H), M8 (FIG. 6I), M10 (FIG. 6K), M11 (FIG. 6L), M12 (FIG. 6M), M13 (FIG. 6N), M15 (FIG. 6P), M16 (FIG. 6Q), M17 (FIG. 6R), M18 (FIG. 6S), M19 (FIG. 6T) and M20 (FIG. 6U).

[2] = molecular target: T2, human C1s mutant M13 (A292D); assay: ELISA, plate coated with human C1s mutant M13: A292D, OD450nm
Method: as §1, §2

[3] = molecular target: T3, C1s in normal human serum (NHS, …); assay: cell-based or functional assay

| Binder | EC50 [1] | EC50 [2] | IC50, inhibition of IgM-induced C4 deposition from NHS [3] | IC50, inhibition of human complement-mediated lysis of EA [3] |
| --- | --- | --- | --- | --- |
| B1 | 3 ng/mL | 6 ng/mL | 500 ng/mL | – |
| B2 | 4 ng/mL | 9 ng/mL | 400 ng/mL | – |
| B3 | 5 ng/mL | 5 ng/mL | 1100 ng/mL | 4100 ng/mL |
